B1: Yen1-1xHA, wild-type, purified [S. cerevisiae] / GST-Smt3 [S. cerevisiae] (parent complex)
chain 1: MGVSQIWEFLKPYLQDSRIPLRKFVIDFNKSQKRAPRIAIDAYGWLFECGFIQNIDISARSRSRSRSPTRSPRDSDIDSSQEYYGSRSYTTTGKAVINFISRLKELLSLNVEFLLVFDGVMKPSFKRKFNHEQNATTCDDEKEYYSSWEQHVKNHEVYGNCKGLLAPSDPEFISLVRKLLDLMNISYVIACGEGEAQCVWLQVSGAVDFILSNDSDTLVFGGEKILKNYSKFYDDFGPSSITSHSPSRHHDSKESFVTVIDLPKINKVAGKKFDRLSLLFFSVLLGADYNRGVKGLGKNKSLQLAQCEDPNFSMEFYDIFKDFNLEDLTSESLRKSRYRLFQKRLYLYCKDHSVELFGRNYPVLLNQGSFEGWPSTVAIMHYFHPIVQPYFDEEVLSDKYINMAGNGHYRNLNFNELKYFLQSLNLPQISSFDKWFHDSMHEMFLLREFLSIDESDNIGKGNMRITEEKIMNIDGGKFQIPCFKIRYTTFLPNIPISSQSPLKRSNSPSRSKSPTRRQMDIMEHPNSLWLPKYLIPQSHPLVIQYYETQQLIQKEKEKKGKKSNKSRLPQKNNLDEFLRKHTSPIKSIGKVGESRKEILEPVRKRLFVDTDEDTSLEEIPAPTRLTTVDEHSDNDDDSLIFVDEITNSQSVLDSSPGKRIRDLTQDEQVDVWKDVIEISPIKKSRTTNAEKNPPESGLKSRSSITINARLQGTKMLPPNLTAPRLEREHSSVLDQLVTDAQDTVDRFVACDSDSSSTIE
chain 2: MSDSEVNQEAKPEVKPEVKPETHINLKVSDGSSEIFFKIKKTTPLRRLMEAFAKRQGKEMDSLRFLYDGIRIQADQTPEDLDMEDNDIIEAHREQIGGATY

In this experiment the parent is B1. In words: pull-down (GST-Smt3 on Glutathione resin, immuno-blot anti-HA); 1/10 inputs, 1/4 elution; parent: 1.
On to chain 1 D635A, chain 1 D636A, chain 1 D637A, for which the ratio to parent was 0.9.

chain 1 V675A, chain 1 E677A: the ratio to parent was found to be 0.9.

Values taken from paper PMC8986097, “SUMO-mediated recruitment allows timely function of the Yen1 nuclease in mitotic cells” (PLoS Genetics, 2022).
